In PMC6403000:
One block for each substance: values may come before it.

Tests used:
Test in all cases: SEC
[1] = biological target: CtHsp104 lacking the NTD with mutated Walker B motifs (E275Q:E679Q) (Calcarisporiella thermophila)
[2] = biological target: CtHsp104 lacking the NTD (residues 153-882) (Calcarisporiella thermophila)
[3] = biological target: CtHsp104 lacking the NTD and the CTT (residues 153-864) (Calcarisporiella thermophila)
[4] = biological target: CtHsp104 lacking the NTD with mutated arginine fingers (R328M/R757M) (Calcarisporiella thermophila)

stoichiometry N [1]: 6
Substance: CtHsp104 lacking the NTD with mutated Walker B motifs (E275Q:E679Q) (domain or fragment)

stoichiometry N [2]: 6
Substance: CtHsp104 lacking the NTD (residues 153-882) (domain or fragment)

stoichiometry N [3]: 6
Substance: CtHsp104 lacking the NTD and the CTT (residues 153-864) (domain or fragment)

stoichiometry N [4]: 6
Substance: CtHsp104 lacking the NTD with mutated arginine fingers (R328M/R757M) (domain or fragment)
